Experimental data: article PMC9597352

Molecular target: T1, GST-Arl8b, Q9NVJ2
T1 chain: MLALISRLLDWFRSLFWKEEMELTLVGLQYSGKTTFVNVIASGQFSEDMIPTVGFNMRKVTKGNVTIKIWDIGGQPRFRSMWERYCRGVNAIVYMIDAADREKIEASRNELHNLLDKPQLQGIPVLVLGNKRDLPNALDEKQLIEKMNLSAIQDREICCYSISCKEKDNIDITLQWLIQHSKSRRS
Assay: pull-down; GST-Arl8b on glutathione-agarose beads loaded with 20 mM GTP (TAP lysis buffer, 10 mM MgCl2, 30 min, 4°C), then HEK293T lysates of transfected cells, 2 h, 4°C; anti-FLAG blot
Conditions: remark: other sources report otherwise

- pulldown relative to RUFY1 (densitometry, normalized to input): 2 fold
B1: RUFY3-FLAG, Q7L099 1-469 (natural protein)
chain: MSALTPPTDMPTPTTDKITQAAMETIYLCKFRVSMDGEWLCLRELDDISLTPDPEPTHEDPNYLMANERMNLMNMAKLSIKGLIESALNLGRTLDSDYAPLQQFFVVMEHCLKHGLKAKKTFLGQNKSFWGPLELVEKLVPEAAEITASVKDLPGLKTPVGRGRAWLRLALMQKKLSEYMKALINKKELLSEFYEPNALMMEEEGAIIAGLLVGLNVIDANFCMKGEDLDSQVGVIDFSMYLKDGNSSKGTEGDGQITAILDQKNYVEELNRHLNATVNNLQAKVDALEKSNTKLTEELAVANNRIITLQEEMERVKEESSYILESNRKGPKQDRTAEGQALSEARKHLKEETQLRLDVEKELEMQISMRQEMELAMKMLEKDVCEKQDALVSLRQQLDDLRALKHELAFKLQSSDLGVKQKSELNSRLEEKTNQMAATIKQLEQSEKDLVKQAKTLNSAANKLIPKHH
